How the values were obtained:
[1] = target: CelA203, lichenase (β-1,3-1,4-glucanase) from Bacillus subtilis B110 (Bacillus subtilis B110); experiment: SDS-PAGE of unboiled sample, mass from a mobility (Rf) standard curve; purified CelA203, unboiled, 10% SDS-PAGE; tetramer band and weak monomer band; tetramer to monomers
[2] = target: CelA203, lichenase (β-1,3-1,4-glucanase) from Bacillus subtilis B110 (Bacillus subtilis B110); experiment: SEC; FPLC, Enrich SEC 650 10 × 300 column, 20 mM Tris-HCl pH 7.0, 0.5 ml/min; calibrated with HMW native protein markers (66-669); polymer and monomer peaks

CelA203, lichenase (β-1,3-1,4-glucanase) from Bacillus subtilis B110 (enzyme)
stoichiometry N [1]: 4.07
stoichiometry N [2]: 4

— PMC9628817
